According to US20140087995A1 (published 2014):
Numbered stars: 1 amine (or outer) side, 2 acyl side, 3 side chain; on linkers, the order of the positions; unused ones are H or OH. Bridge positions count the residues as written; N and C are the ends. Side chains are listed from the residue outwards. Ends that are not written are not given here. * marks the point of attachment. C20 diacid = O=C(O)CCCCCCCCCCCCCCCCCCC(=O)*; γGlu = O=C(O)[C@H](CCC(=O)[*:2])N[*:1]

T1: human amylin 3(a) receptor (human calcitonin receptor co-expressed with RAMP-3) (human, UniProt P30988 25-474; O60896 24-148, limits assumed)
T1 sequence (looked up) 1: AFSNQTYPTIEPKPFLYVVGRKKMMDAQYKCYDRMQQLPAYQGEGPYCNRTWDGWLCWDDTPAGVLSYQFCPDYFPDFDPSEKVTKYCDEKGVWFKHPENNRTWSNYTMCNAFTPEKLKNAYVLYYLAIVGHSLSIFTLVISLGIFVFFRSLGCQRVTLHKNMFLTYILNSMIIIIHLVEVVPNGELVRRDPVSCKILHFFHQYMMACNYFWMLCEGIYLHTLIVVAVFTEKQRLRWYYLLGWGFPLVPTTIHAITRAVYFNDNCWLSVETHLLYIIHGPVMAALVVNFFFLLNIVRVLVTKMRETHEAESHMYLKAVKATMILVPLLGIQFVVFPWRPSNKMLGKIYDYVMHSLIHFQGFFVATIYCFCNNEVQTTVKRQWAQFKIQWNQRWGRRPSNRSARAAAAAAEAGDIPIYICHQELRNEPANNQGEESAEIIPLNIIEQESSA
T1 sequence (looked up) 2: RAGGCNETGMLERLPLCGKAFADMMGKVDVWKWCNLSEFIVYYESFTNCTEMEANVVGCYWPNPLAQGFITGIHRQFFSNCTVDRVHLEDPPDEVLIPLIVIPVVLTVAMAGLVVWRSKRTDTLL

T2: human calcitonin receptor (human, UniProt P30988 25-474)
T2 sequence (looked up): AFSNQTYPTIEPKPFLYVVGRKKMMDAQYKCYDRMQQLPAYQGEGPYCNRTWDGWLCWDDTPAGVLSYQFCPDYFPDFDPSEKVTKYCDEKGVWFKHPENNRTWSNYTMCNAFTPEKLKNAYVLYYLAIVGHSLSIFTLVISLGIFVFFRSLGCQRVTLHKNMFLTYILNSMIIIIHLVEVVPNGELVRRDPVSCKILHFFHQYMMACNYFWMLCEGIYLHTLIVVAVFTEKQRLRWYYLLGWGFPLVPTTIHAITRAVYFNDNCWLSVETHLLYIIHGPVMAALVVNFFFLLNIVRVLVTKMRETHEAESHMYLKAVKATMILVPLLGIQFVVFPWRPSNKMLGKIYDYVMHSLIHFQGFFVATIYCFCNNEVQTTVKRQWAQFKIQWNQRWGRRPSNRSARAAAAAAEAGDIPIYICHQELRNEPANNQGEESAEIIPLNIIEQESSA

B1: N^ε1-[(4S)-4-carboxy-4-(19-carboxynonadecanoylamino)butanoyl]-[Ala14,Arg17,Pro21,Pro27,Pro34]-h-amylin (peptide)
peptide: K([γGlu-C20 diacid])CNTATCATQRLAAFLRHSSPNFGAIPSSTNVGPNTY-NH2
modifications: disulfide 2-7; N-terminus assumed
SMILES: CC[C@H](C)[C@H](NC(=O)[C@H](C)NC(=O)CNC(=O)[C@H](Cc1ccccc1)NC(=O)[C@H](CC(N)=O)NC(=O)[C@@H]1CCCN1C(=O)[C@H](CO)NC(=O)[C@H](CO)NC(=O)[C@H](Cc1c[nH]cn1)NC(=O)[C@H](CCCNC(=N)N)NC(=O)[C@H](CC(C)C)NC(=O)[C@H](Cc1ccccc1)NC(=O)[C@H](C)NC(=O)[C@H](C)NC(=O)[C@H](CC(C)C)NC(=O)[C@H](CCCNC(=N)N)NC(=O)[C@H](CCC(N)=O)NC(=O)[C@@H](NC(=O)[C@H](C)NC(=O)[C@@H]1CSSC[C@H](NC(=O)[C@@H](N)CCCCNC(=O)CC[C@H](NC(=O)CCCCCCCCCCCCCCCCCCC(=O)O)C(=O)O)C(=O)N[C@@H](CC(N)=O)C(=O)N[C@@H]([C@@H](C)O)C(=O)N[C@@H](C)C(=O)N[C@@H]([C@@H](C)O)C(=O)N1)[C@@H](C)O)C(=O)N1CCC[C@H]1C(=O)N[C@@H](CO)C(=O)N[C@@H](CO)C(=O)N[C@H](C(=O)N[C@@H](CC(N)=O)C(=O)N[C@H](C(=O)NCC(=O)N1CCC[C@H]1C(=O)N[C@@H](CC(N)=O)C(=O)N[C@H](C(=O)N[C@@H](Cc1ccc(O)cc1)C(N)=O)[C@@H](C)O)C(C)C)[C@@H](C)O
notes: also called compound 94
B2: N^ε1-[(4S)-4-carboxy-4-(19-carboxynonadecanoylamino)butanoyl]-[Glu14,Arg17,Pro21,Pro27,Arg34,Glu35]-h-amylin (peptide)
peptide: K([γGlu-C20 diacid])CNTATCATQRLAEFLRHSSPNFGAIPSSTNVGRETY-NH2
modifications: disulfide 2-7; N-terminus assumed
SMILES: CC[C@H](C)[C@H](NC(=O)[C@H](C)NC(=O)CNC(=O)[C@H](Cc1ccccc1)NC(=O)[C@H](CC(N)=O)NC(=O)[C@@H]1CCCN1C(=O)[C@H](CO)NC(=O)[C@H](CO)NC(=O)[C@H](Cc1c[nH]cn1)NC(=O)[C@H](CCCNC(=N)N)NC(=O)[C@H](CC(C)C)NC(=O)[C@H](Cc1ccccc1)NC(=O)[C@H](CCC(=O)O)NC(=O)[C@H](C)NC(=O)[C@H](CC(C)C)NC(=O)[C@H](CCCNC(=N)N)NC(=O)[C@H](CCC(N)=O)NC(=O)[C@@H](NC(=O)[C@H](C)NC(=O)[C@@H]1CSSC[C@H](NC(=O)[C@@H](N)CCCCNC(=O)CC[C@H](NC(=O)CCCCCCCCCCCCCCCCCCC(=O)O)C(=O)O)C(=O)N[C@@H](CC(N)=O)C(=O)N[C@@H]([C@@H](C)O)C(=O)N[C@@H](C)C(=O)N[C@@H]([C@@H](C)O)C(=O)N1)[C@@H](C)O)C(=O)N1CCC[C@H]1C(=O)N[C@@H](CO)C(=O)N[C@@H](CO)C(=O)N[C@H](C(=O)N[C@@H](CC(N)=O)C(=O)N[C@H](C(=O)NCC(=O)N[C@@H](CCCNC(=N)N)C(=O)N[C@@H](CCC(=O)O)C(=O)N[C@H](C(=O)N[C@@H](Cc1ccc(O)cc1)C(N)=O)[C@@H](C)O)C(C)C)[C@@H](C)O
B3: N^ε1-[(4S)-4-carboxy-4-(19-carboxynonadecanoylamino)butanoyl]-[Glu14,Arg17,Pro21,Pro27,Pro34,Arg35]-h-amylin (peptide)
peptide: K([γGlu-C20 diacid])CNTATCATQRLAEFLRHSSPNFGAIPSSTNVGPRTY-NH2
modifications: disulfide 2-7; N-terminus assumed
SMILES: CC[C@H](C)[C@H](NC(=O)[C@H](C)NC(=O)CNC(=O)[C@H](Cc1ccccc1)NC(=O)[C@H](CC(N)=O)NC(=O)[C@@H]1CCCN1C(=O)[C@H](CO)NC(=O)[C@H](CO)NC(=O)[C@H](Cc1c[nH]cn1)NC(=O)[C@H](CCCNC(=N)N)NC(=O)[C@H](CC(C)C)NC(=O)[C@H](Cc1ccccc1)NC(=O)[C@H](CCC(=O)O)NC(=O)[C@H](C)NC(=O)[C@H](CC(C)C)NC(=O)[C@H](CCCNC(=N)N)NC(=O)[C@H](CCC(N)=O)NC(=O)[C@@H](NC(=O)[C@H](C)NC(=O)[C@@H]1CSSC[C@H](NC(=O)[C@@H](N)CCCCNC(=O)CC[C@H](NC(=O)CCCCCCCCCCCCCCCCCCC(=O)O)C(=O)O)C(=O)N[C@@H](CC(N)=O)C(=O)N[C@@H]([C@@H](C)O)C(=O)N[C@@H](C)C(=O)N[C@@H]([C@@H](C)O)C(=O)N1)[C@@H](C)O)C(=O)N1CCC[C@H]1C(=O)N[C@@H](CO)C(=O)N[C@@H](CO)C(=O)N[C@H](C(=O)N[C@@H](CC(N)=O)C(=O)N[C@H](C(=O)NCC(=O)N1CCC[C@H]1C(=O)N[C@@H](CCCNC(=N)N)C(=O)N[C@H](C(=O)N[C@@H](Cc1ccc(O)cc1)C(N)=O)[C@@H](C)O)C(C)C)[C@@H](C)O
B4: N^ε1-[(4S)-4-carboxy-4-(19-carboxynonadecanoylamino)butanoyl]-[Arg17,Pro21,Pro27,Arg34]-h-amylin (peptide)
peptide: K([γGlu-C20 diacid])CNTATCATQRLANFLRHSSPNFGAIPSSTNVGRNTY-NH2
modifications: disulfide 2-7; N-terminus assumed
SMILES: CC[C@H](C)[C@H](NC(=O)[C@H](C)NC(=O)CNC(=O)[C@H](Cc1ccccc1)NC(=O)[C@H](CC(N)=O)NC(=O)[C@@H]1CCCN1C(=O)[C@H](CO)NC(=O)[C@H](CO)NC(=O)[C@H](Cc1c[nH]cn1)NC(=O)[C@H](CCCNC(=N)N)NC(=O)[C@H](CC(C)C)NC(=O)[C@H](Cc1ccccc1)NC(=O)[C@H](CC(N)=O)NC(=O)[C@H](C)NC(=O)[C@H](CC(C)C)NC(=O)[C@H](CCCNC(=N)N)NC(=O)[C@H](CCC(N)=O)NC(=O)[C@@H](NC(=O)[C@H](C)NC(=O)[C@@H]1CSSC[C@H](NC(=O)[C@@H](N)CCCCNC(=O)CC[C@H](NC(=O)CCCCCCCCCCCCCCCCCCC(=O)O)C(=O)O)C(=O)N[C@@H](CC(N)=O)C(=O)N[C@@H]([C@@H](C)O)C(=O)N[C@@H](C)C(=O)N[C@@H]([C@@H](C)O)C(=O)N1)[C@@H](C)O)C(=O)N1CCC[C@H]1C(=O)N[C@@H](CO)C(=O)N[C@@H](CO)C(=O)N[C@H](C(=O)N[C@@H](CC(N)=O)C(=O)N[C@H](C(=O)NCC(=O)N[C@@H](CCCNC(=N)N)C(=O)N[C@@H](CC(N)=O)C(=O)N[C@H](C(=O)N[C@@H](Cc1ccc(O)cc1)C(N)=O)[C@@H](C)O)C(C)C)[C@@H](C)O
notes: also called compound 79
B5: N^ε1-[(4S)-4-carboxy-4-(19-carboxynonadecanoylamino)butanoyl]-[Glu14,Arg17,Pro21,Pro27,Pro34,Glu35]-h-amylin (peptide)
peptide: K([γGlu-C20 diacid])CNTATCATQRLAEFLRHSSPNFGAIPSSTNVGPETY-NH2
modifications: disulfide 2-7; N-terminus assumed
SMILES: CC[C@H](C)[C@H](NC(=O)[C@H](C)NC(=O)CNC(=O)[C@H](Cc1ccccc1)NC(=O)[C@H](CC(N)=O)NC(=O)[C@@H]1CCCN1C(=O)[C@H](CO)NC(=O)[C@H](CO)NC(=O)[C@H](Cc1c[nH]cn1)NC(=O)[C@H](CCCNC(=N)N)NC(=O)[C@H](CC(C)C)NC(=O)[C@H](Cc1ccccc1)NC(=O)[C@H](CCC(=O)O)NC(=O)[C@H](C)NC(=O)[C@H](CC(C)C)NC(=O)[C@H](CCCNC(=N)N)NC(=O)[C@H](CCC(N)=O)NC(=O)[C@@H](NC(=O)[C@H](C)NC(=O)[C@@H]1CSSC[C@H](NC(=O)[C@@H](N)CCCCNC(=O)CC[C@H](NC(=O)CCCCCCCCCCCCCCCCCCC(=O)O)C(=O)O)C(=O)N[C@@H](CC(N)=O)C(=O)N[C@@H]([C@@H](C)O)C(=O)N[C@@H](C)C(=O)N[C@@H]([C@@H](C)O)C(=O)N1)[C@@H](C)O)C(=O)N1CCC[C@H]1C(=O)N[C@@H](CO)C(=O)N[C@@H](CO)C(=O)N[C@H](C(=O)N[C@@H](CC(N)=O)C(=O)N[C@H](C(=O)NCC(=O)N1CCC[C@H]1C(=O)N[C@@H](CCC(=O)O)C(=O)N[C@H](C(=O)N[C@@H](Cc1ccc(O)cc1)C(N)=O)[C@@H](C)O)C(C)C)[C@@H](C)O
B6: N^ε1-[(4S)-4-carboxy-4-(19-carboxynonadecanoylamino)butanoyl]-[Arg14,Arg17,Pro21,Pro27]-h-amylin (peptide)
peptide: K([γGlu-C20 diacid])CNTATCATQRLARFLRHSSPNFGAIPSSTNVGSNTY-NH2
modifications: disulfide 2-7; N-terminus assumed
SMILES: CC[C@H](C)[C@H](NC(=O)[C@H](C)NC(=O)CNC(=O)[C@H](Cc1ccccc1)NC(=O)[C@H](CC(N)=O)NC(=O)[C@@H]1CCCN1C(=O)[C@H](CO)NC(=O)[C@H](CO)NC(=O)[C@H](Cc1c[nH]cn1)NC(=O)[C@H](CCCNC(=N)N)NC(=O)[C@H](CC(C)C)NC(=O)[C@H](Cc1ccccc1)NC(=O)[C@H](CCCNC(=N)N)NC(=O)[C@H](C)NC(=O)[C@H](CC(C)C)NC(=O)[C@H](CCCNC(=N)N)NC(=O)[C@H](CCC(N)=O)NC(=O)[C@@H](NC(=O)[C@H](C)NC(=O)[C@@H]1CSSC[C@H](NC(=O)[C@@H](N)CCCCNC(=O)CC[C@H](NC(=O)CCCCCCCCCCCCCCCCCCC(=O)O)C(=O)O)C(=O)N[C@@H](CC(N)=O)C(=O)N[C@@H]([C@@H](C)O)C(=O)N[C@@H](C)C(=O)N[C@@H]([C@@H](C)O)C(=O)N1)[C@@H](C)O)C(=O)N1CCC[C@H]1C(=O)N[C@@H](CO)C(=O)N[C@@H](CO)C(=O)N[C@H](C(=O)N[C@@H](CC(N)=O)C(=O)N[C@H](C(=O)NCC(=O)N[C@@H](CO)C(=O)N[C@@H](CC(N)=O)C(=O)N[C@H](C(=O)N[C@@H](Cc1ccc(O)cc1)C(N)=O)[C@@H](C)O)C(C)C)[C@@H](C)O
notes: also called compound 83

Key:
[1] = target: T1, human amylin 3(a) receptor (human …); assay: cell-based or functional assay
[2] = target: T2, human calcitonin receptor; assay: cell-based or functional assay

Row | Binder | hAmylin-R funct. EC50 [1] [nM] | Ratio hCT/hAmylin funct. [2] | hCTR funct. EC50 [2] [nM]
1 | B1 | 0.07 | 4.5 | 0.316
2 | B2 | 0.421 | 6.5 | 2.75
3 | B3 | 0.376 | 17 | 6.38
4 | B4 | 0.161 | 24.5 | 3.94
5 | B5 | 0.161 | 5.2 | 0.841
6 | B6 | 0.405 | 41.6 | 16.8
